Key:
Assay in all cases: flow cytometry (Mock 2.5)
[1] = biological target: SARS-CoV-2 δ variant spike protein, cell-expressed (SARS-CoV-2)
α (SARS-CoV-2) = biological target: α (SARS-CoV-2)
β (SARS-CoV-2) = biological target: β (SARS-CoV-2)
γ (SARS-CoV-2) = biological target: γ (SARS-CoV-2)
ε (SARS-CoV-2) = biological target: ε (SARS-CoV-2)
ι (SARS-CoV-2) = biological target: ι (SARS-CoV-2)
κ (SARS-CoV-2) = biological target: κ (SARS-CoV-2)

Chain of Adintrevimab (antibody) (VH): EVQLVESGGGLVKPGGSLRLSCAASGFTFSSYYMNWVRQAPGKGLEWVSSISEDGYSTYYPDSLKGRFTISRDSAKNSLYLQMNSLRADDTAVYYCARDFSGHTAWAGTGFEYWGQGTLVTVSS
Chain of Adintrevimab (antibody) (VL): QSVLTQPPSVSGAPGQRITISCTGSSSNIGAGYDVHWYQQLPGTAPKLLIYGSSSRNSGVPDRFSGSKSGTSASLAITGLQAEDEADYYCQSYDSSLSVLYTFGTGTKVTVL

What does the source list for Adintrevimab (antibody)?
log10 ΔgMFI [1]: 4.5; log10 ΔgMFI (α (SARS-CoV-2)): 4.3; log10 ΔgMFI (β (SARS-CoV-2)): 3.9; log10 ΔgMFI (γ (SARS-CoV-2)): 4.5; log10 ΔgMFI (ε (SARS-CoV-2)): 4.5; log10 ΔgMFI (ι (SARS-CoV-2)): 4.9; log10 ΔgMFI (κ (SARS-CoV-2)): 4.8

With BAM (antibody) as the substance, how does the log10 ΔgMFI [1] read?
The log10 ΔgMFI was 2.5.

What about the log10 ΔgMFI (α (SARS-CoV-2)) of the same substance?
The log10 ΔgMFI was 4.4.

And the log10 ΔgMFI (β (SARS-CoV-2))?
The log10 ΔgMFI was 2.5.

And the log10 ΔgMFI (γ (SARS-CoV-2))?
Its log10 ΔgMFI is 2.5.

And the log10 ΔgMFI (ι (SARS-CoV-2))?
The log10 ΔgMFI was 2.5.

What about the log10 ΔgMFI (κ (SARS-CoV-2)) of the same substance?
Its log10 ΔgMFI is 3.5.

Which results are given for CAS (antibody)?
log10 ΔgMFI [1]: 4.6; log10 ΔgMFI (α (SARS-CoV-2)): 4.4; log10 ΔgMFI (β (SARS-CoV-2)): 3.1; log10 ΔgMFI (ε (SARS-CoV-2)): 4.6; log10 ΔgMFI (ι (SARS-CoV-2)): 4.9; log10 ΔgMFI (κ (SARS-CoV-2)): 4.9

Which results are given for Cilgavimab (antibody)?
log10 ΔgMFI (α (SARS-CoV-2)): 4.4; log10 ΔgMFI (γ (SARS-CoV-2)): 4.7; log10 ΔgMFI (ι (SARS-CoV-2)): 4.9; log10 ΔgMFI (κ (SARS-CoV-2)): 4.7

Which log10 ΔgMFI [1] does the source give for ETE (antibody) here?
The log10 ΔgMFI was 4.5.

And the log10 ΔgMFI (α (SARS-CoV-2))?
Its log10 ΔgMFI is 4.2.

What about the log10 ΔgMFI (β (SARS-CoV-2)) of the same substance?
Its log10 ΔgMFI is 2.5.

And the log10 ΔgMFI (γ (SARS-CoV-2))?
Its log10 ΔgMFI is 2.5.

What about the log10 ΔgMFI (ε (SARS-CoV-2)) of the same substance?
The log10 ΔgMFI was 4.5.

What about the log10 ΔgMFI (ι (SARS-CoV-2)) of the same substance?
The log10 ΔgMFI was 4.8.

What about the log10 ΔgMFI (κ (SARS-CoV-2)) of the same substance?
Its log10 ΔgMFI is 4.7.

For TIX (antibody), which log10 ΔgMFI [1] is on record?
Its log10 ΔgMFI is 4.7.

And the log10 ΔgMFI (α (SARS-CoV-2))?
Its log10 ΔgMFI is 4.5.

And the log10 ΔgMFI (β (SARS-CoV-2))?
The log10 ΔgMFI was 3.9.

What about the log10 ΔgMFI (γ (SARS-CoV-2)) of the same substance?
The log10 ΔgMFI was 4.6.

What about the log10 ΔgMFI (ε (SARS-CoV-2)) of the same substance?
The log10 ΔgMFI was 4.7.

And the log10 ΔgMFI (ι (SARS-CoV-2))?
The log10 ΔgMFI was 4.9.

And the log10 ΔgMFI (κ (SARS-CoV-2))?
The log10 ΔgMFI was 4.9.

Source: patent publication US20240336672A1
